According to patent publication US20260092115A1 (Chugai, published 2026):
Residue numbers refer to the chain shown, from its start. Names and notes keep the numbering of the source.

T1: human FcγRIIb extracellular domain, His-tagged (human, UniProt P31994 43-217)
T1 construct: extracellular domain; also called hFcγR IIb
T1 sequence (looked up): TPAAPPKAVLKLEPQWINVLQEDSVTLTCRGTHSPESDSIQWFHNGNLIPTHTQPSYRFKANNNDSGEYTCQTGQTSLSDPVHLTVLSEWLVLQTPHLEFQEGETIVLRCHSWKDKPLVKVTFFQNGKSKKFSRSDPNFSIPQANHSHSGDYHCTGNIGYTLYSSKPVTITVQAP

T2: human FcγRIIa, type H, extracellular domain, His-tagged (human, UniProt P12318 34-217)
T2 construct: extracellular domain; also called hFcγR IIa H
T2 sequence (looked up): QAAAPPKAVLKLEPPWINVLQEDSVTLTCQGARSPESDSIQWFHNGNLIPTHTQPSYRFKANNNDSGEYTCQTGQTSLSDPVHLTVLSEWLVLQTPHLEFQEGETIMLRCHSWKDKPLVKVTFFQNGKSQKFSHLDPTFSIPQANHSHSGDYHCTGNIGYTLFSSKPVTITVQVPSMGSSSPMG

T3: human FcγRIIa, type R, extracellular domain, His-tagged (human, UniProt P12318 34-217)
T3 construct: extracellular domain; also called hFcγR IIa R
T3 sequence (looked up): T2 sequence (looked up) with H134R

B1: 04H1637-G1m/04L1610-lam1 (antibody, human IgG1, lambda)
heavy: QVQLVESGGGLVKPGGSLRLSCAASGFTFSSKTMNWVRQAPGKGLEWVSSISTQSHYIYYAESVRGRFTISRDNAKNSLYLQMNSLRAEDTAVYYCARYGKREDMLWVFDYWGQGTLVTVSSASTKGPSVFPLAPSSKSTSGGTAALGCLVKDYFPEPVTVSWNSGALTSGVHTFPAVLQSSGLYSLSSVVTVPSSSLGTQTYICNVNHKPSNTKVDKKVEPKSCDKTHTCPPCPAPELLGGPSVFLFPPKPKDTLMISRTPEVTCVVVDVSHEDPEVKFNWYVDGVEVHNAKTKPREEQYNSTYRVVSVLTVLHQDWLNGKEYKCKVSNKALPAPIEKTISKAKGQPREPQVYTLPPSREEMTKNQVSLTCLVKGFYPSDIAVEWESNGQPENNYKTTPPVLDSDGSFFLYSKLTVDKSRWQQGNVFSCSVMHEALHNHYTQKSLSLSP
light: QSALTQPPSASGSPGQSVTISCEGPSTGVGDYNWVHWYQQHPGKAPKLMIYFTSKKPSGVPDRFSGSKSGNTASLTVSGLQAEDEADYYCQTYAAPLGPMFGGGTKLTVLGQPKAAPSVTLFPPSSEELQANKATLVCLISDFYPGAVTVAWKADSSPVKAGVETTTPSKQSNNKYAASSYLSLTPEQWKSHRSYSCQVTHEGSTVEKTVAPTECS
B2: 04H1654-KT462/04L1610-lam1//04H1656-HT445/04L1610-lam1 (antibody, human IgG1, lambda)
heavy 1: QVQLVESGGGVVQPGGSLRLSCAASGFTFSSKTMNWVRQAPGKGLEWVSSISTQSHYIYYARSVRGRFTISRDNAKNSLYLQMNSLRAEDTAVYYCARYGKREDMLWVFDYWGQGTLVTVSSASTKGPSVFPLAPSSKSTSGGTAALGCLVKDYFPEPVTVSWNSGALTSGVHTFPAVLQSSGLYSLSSVVTVPSSSLGTQTYICNVNHKPSNTKVDKRVEPKSCDKTHTCPPCPAPEFQWGPMVFLFPPKPKDVLMISRTPEVTCVVVDVSDEEPEVKFNWYVDGVEVHNAKTKPREEQYNATYRVVSVLPVLHQDWLNGKEYKCKVSNDALPAPIEKTISKAKGQPREPQVYTLPPSRKEMTKNQVSLTCLVKGFYPSDIAVEWESNGQPENNYKTTPPVLDSDGSFFLYSKLTVDKSRWQQGNVFSCSVMHEALHNHYTQKSLSLSP
heavy 2: QVQLVESGGGVVQPGGSLRLSCAASGFTFSSKTMNWVRQAPGKGLEWVSSISTQSHYIYYAESVRGRFTISRDNAKNSLYLQMNSLRAEDTAVYYCARYGAREDMLWVFDYWGQGTLVTVSSASTKGPSVFPLAPSSKSTSGGTAALGCLVKDYFPEPVTVSWNSGALTSGVHTFPAVLQSSGLYSLSSVVTVPSSSLGTQTYICNVNHKPSNTKVDKRVEPKSCDKTHTCPPCPAPELLAGPSVFLFPPKPKDVLMISRTPEVTCVVVDVSHEEPEVKFNWYVDGVEVHNAKTKPREEQYNATYRVVSVLPVLHQDWLNGKEYKCKVSNDALPKPDEETISKAKGQPREPQVYTLPPSREEMTKNQVSLTCLVKGFYPSDIAVEWESNGQPENNYKTTPPVLDSDGSFFLYSKLTVDKSRWQQGNVFSCSVMHEALHNHYTQESLSLSP
light: B1 light
notes: Heterodimerized IgG1 (IGHG1*03) Fc variant
B3: 04H1654-KT461/04L1610-lam1//04H1656-HT443/04L1610-lam1 (antibody, human IgG1, lambda)
heavy 1: B2 heavy 1 with I337E
heavy 2: B2 heavy 2 with K335A, D337E
light: B1 light
notes: as for B2
B4: 04H1654-KT473/04L1612-lam1//04H1656-HT482/04L1612-lam1 (antibody, IgG1)
heavy 1: B2 heavy 1 with N439A, Y441T, Q443R, S445E
heavy 2: B2 heavy 2 with N439A, Y441T, Q443R, S445E
light: B1 light with N33T, W34Y
notes: Heterodimerized IgG1 Fc variant with N434A/Y436T/Q438R/S440E
B5: 04H1654-KT473/04L1610-lam1//04H1656-HT482/04L1610-lam1 (antibody, IgG1)
heavy 1: B2 heavy 1 with N439A, Y441T, Q443R, S445E
heavy 2: B2 heavy 2 with N439A, Y441T, Q443R, S445E
light: B1 light
notes: Heterodimerized IgG1 Fc variant with N434A/Y436T/Q438R/S440E; also called SW1610-ART6+ACT1
B6: 04H1654-KT462/04L1612-lam1//04H1656-HT445/04L1612-lam1 (antibody, human IgG1, lambda)
heavy 1: B2 heavy 1
heavy 2: B2 heavy 2
light: B1 light with N33T, W34Y
notes: as for B2
B7: 04H1654-KT461/04L1612-lam1//04H1656-HT443/04L1612-lam1 (antibody, human IgG1, lambda)
heavy 1: B2 heavy 1 with I337E
heavy 2: B2 heavy 2 with K335A, D337E
light: B1 light with N33T, W34Y
notes: as for B2

molecular target: T1, human FcγRIIb extracellular domain, …; experiment: SPR Biacore T200, 25C, pH 7.4; FcγRIIb at 1000 nM, corrected by captured antibody
Method: (§1) The interaction between the generated antibodies and human FcγRs was analyzed by the following method using Biacore T200. 50 mM Na-Phosphate, 150 mM NaCl, 0.05% Tween20 (pH 7.4) was used as the running buffer, and the assay was performed at 25° C. For the sensor chips, Series S SA (GE Healthcare) chips onto which CaptureSelect Human Fab-lambda Kinetics Biotin Conjugate (Thermo Fisher Scientific) was immobilized were used. The antibodies of interest were captured onto these chips and each FcγR diluted in the running buffer was allowed to interact with them. Chips were regenerated with 10 mM Glycine-HCl (pH 1.5) and 25 mM NaOH, and assay was performed by repeatedly capturing antibodies. The dissociation constants KD (mol/L) for FcγRs of each antibody were calculated using Biacore T200 Evaluation Software 2.0, using the 1:1 Langmuir binding model for FcγRIa and FcγRIIIa and the steady state affinity model for FcγRIIa. For FcγRIIb, the binding amount of FcγRIIb per unit amount of antibody was calculated by correcting the binding amount of FcγRIIb obtained from the sensorgram obtained by the measurement with the amount of antibody captured onto the chip surface.

Row | Binding amount | Binder
1 | 0.008 RU per RU of captured antibody | B1
2 | 0.025 RU per RU of captured antibody | B2
3 | 0.025 RU per RU of captured antibody | B3
4 | 0.026 RU per RU of captured antibody | B4
5 | 0.026 RU per RU of captured antibody | B5
6 | 0.028 RU per RU of captured antibody | B6
7 | 0.025 RU per RU of captured antibody | B7

molecular target: T4, human FcγRIIIa, allotype V158, extracellular domain, His-tagged (human, UniProt P08637 17-208); experiment: KD of 04H1637-G1m/04L1610-lam1 divided by KD of this antibody; SPR pH 7.4
T4 construct: extracellular domain; also called hFcγR IIIa V
T4 sequence (P08637 17-208 F176V): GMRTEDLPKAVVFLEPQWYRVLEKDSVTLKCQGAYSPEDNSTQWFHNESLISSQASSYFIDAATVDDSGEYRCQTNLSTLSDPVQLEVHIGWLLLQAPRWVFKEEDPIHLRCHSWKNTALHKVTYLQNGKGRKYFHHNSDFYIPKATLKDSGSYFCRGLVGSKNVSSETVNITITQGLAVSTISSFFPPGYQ
Method: as §1
(§2) “Relative value to KD between G1m and hFcRn” and “Relative value to KD between G1m and hFcγRs” are values obtained by dividing the KD value of 04H1637-G1m/04L1610-lam1 for hFcRn and for each FcγR by the KD value of each variant, respectively. “Relative binding amount” indicates the value obtained by dividing the binding amount of each variant to FcγRIIb by the binding amount of 04H1637-G1m/04L1610-lam1. […] It was shown that all of the generated heterodimerized antibodies had enhanced binding to FcγRIIa and FcγRIIIa as compared with 04H1637-G1m/04L1610-lam1 which has the constant region of native human IgG1.

Row | Relative value to KD between G1m and hFcγRs [ratio] | Binder
8 | 1 | B1
9 | 110 | B2
10 | 156 | B3
11 | 110 | B4
12 | 115 | B5
13 | 106 | B6
14 | 159 | B7

molecular target: T2, human FcγRIIa, type H, extracellular …; experiment: as above
Method: as §1, §2

Row | Relative value to KD between G1m and hFcγRs [ratio] | Binder
15 | 1 | B1
16 | 13.9 | B2
17 | 7.3 | B3
18 | 16.2 | B4
19 | 18 | B5
20 | 16.1 | B6
21 | 7.1 | B7

molecular target: T3, human FcγRIIa, type R, extracellular …; experiment: as above
Method: as §1, §2

Row | Relative value to KD between G1m and hFcγRs [ratio] | Binder
22 | 1 | B1
23 | 13 | B2
24 | 8.4 | B3
25 | 13.8 | B4
26 | 13.9 | B5
27 | 14.2 | B6
28 | 8.2 | B7

molecular target: T5, human FcγRIa extracellular domain, His-tagged (human, UniProt P12314 16-292); experiment: as above
T5 construct: also called hFcγR Ia
T5 sequence (P12314 16-292): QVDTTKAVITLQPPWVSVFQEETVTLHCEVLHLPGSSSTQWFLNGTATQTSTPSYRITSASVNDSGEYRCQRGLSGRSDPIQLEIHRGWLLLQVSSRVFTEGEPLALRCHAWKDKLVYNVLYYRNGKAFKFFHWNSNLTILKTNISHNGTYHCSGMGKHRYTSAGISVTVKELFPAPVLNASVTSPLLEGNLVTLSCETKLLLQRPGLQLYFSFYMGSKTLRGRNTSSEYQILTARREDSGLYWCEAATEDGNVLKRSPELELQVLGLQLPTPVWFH
Method: as §1, §2

Row | Relative value to KD between G1m and hFcγRs [ratio] | Binder
29 | 1 | B1
30 | 1.6 | B2
31 | 1.5 | B3
32 | 1 | B4
33 | 1.1 | B5
34 | 1.2 | B6
35 | 1.3 | B7

molecular target: T6, human FcγRIIIa, allotype F158, extracellular domain, His-tagged (human, UniProt P08637 17-208); experiment: as above
T6 construct: extracellular domain; also called hFcγR IIIa F
T6 sequence (P08637 17-208): as the sequence (P08637 17-208 F176V) above, with V160F counted along it
Method: as §1, §2

Row | Relative value to KD between G1m and hFcγRs [ratio] | Binder
36 | 1 | B1
37 | 415 | B2
38 | 526 | B3
39 | 355 | B4
40 | 363 | B5
41 | 408 | B6
42 | 537 | B7

molecular target: T1, human FcγRIIb extracellular domain, …; experiment: binding amount of this antibody divided by that of 04H1637-G1m/04L1610-lam1; SPR pH 7.4
Method: as §1, §2

Row | Relative binding amount [ratio] | Binder
43 | 1 | B1
44 | 3.1 | B2
45 | 3.1 | B3
46 | 3.2 | B4
47 | 3.2 | B5
48 | 3.4 | B6
49 | 3.1 | B7

molecular target: T7, human FcRn (human, UniProt P55899 24-290; P61769 21-119); experiment: KD of 04H1637-G1m/04L1610-lam1 divided by KD of this antibody; SPR pH 6.0
T7 construct: Prepared by the method of WO 2010/107110; also called hFcRn
Method: The interaction between the generated antibodies and human FcRn was analyzed by the following method using Biacore T200. 50 mM Na-Phosphate, 150 mM NaCl, 0.05% Tween20 (pH 6.0) was used as the running buffer, and the assay was performed at 25° C. For the sensor chip, Series S SA (GE Healthcare) chips onto which CaptureSelect Human Fab-lambda Kinetics Biotin Conjugate (Thermo Fisher Scientific) was immobilized were used. The antibodies of interest were captured onto these chips and FcRn diluted in the running buffer was allowed to interact with them. Chips were regenerated with 10 mM Glycine-HCl (pH 1.5) and 25 mM NaOH, and assay was performed by repeatedly capturing antibodies. The dissociation constant for FcRn of each antibody was calculated using the steady state model, using Biacore T200 Evaluation Software 2.0.
“Relative value to KD between G1m and hFcRn” and “Relative value to KD between G1m and hFcγRs” are values obtained by dividing the KD value of 04H1637-G1m/04L1610-lam1 for hFcRn and for each FcγR by the KD value of each variant, respectively. “Relative binding amount” indicates the value obtained by dividing the binding amount of each variant to FcγRIIb by the binding amount of 04H1637-G1m/04L1610-lam1. […] It was shown that all of the generated heterodimerized antibodies had enhanced binding to FcγRIIa and FcγRIIIa as compared with 04H1637-G1m/04L1610-lam1 which has the constant region of native human IgG1. Furthermore, 04H1637-Kn462/04L1610-lam1//04H1637-H1441/04L1610-lam1, 04H1637-Kn462/04L1610-lam1//04H1637-H1445/04L1610-lam1, and 04H1637-Kn461/04L1610-lam1//04H1637-H1443/04L1610-lam1 were all shown to have enhanced binding to FcγRIIa compared to 04H1637-Kn125/04L1610-lam1//04H1637-H1076/04L1610-lam 1 which has the Fc region variant reported in WO 2013/002362.

Row | Relative value to KD between G1m and hFcRn [ratio] | Binder
50 | 1 | B1
51 | 0.9 | B2
52 | 0.9 | B3
53 | 2.1 | B4
54 | 2.3 | B5
55 | 0.8 | B6
56 | 0.8 | B7
